Data taken from patent US12030916 (AUCTUS BIOLOGICS, dated 2024).

Target: T1, RPtag small tight peptide (Nd2,P5A,E18A) with a C-terminal GGC sequence (C-terminal Cys reacted with maleimide-activated plate (immobilised))
T1 construct: also called RPtag small peptide; bait peptide
T1 peptide: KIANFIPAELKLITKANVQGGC
Experiment: capture ELISA, peptide immobilised on maleimide plate
Procedure: White Pierce™ Maleimide Activated Plates were washed 4× with 200 μL 50 mM phosphate pH 7.4, 150 mM NaCl, and reacted with 100 μL of RPtag small peptide that binds with high affinity to RPtag large. Specifically, RPtag small tight peptide (Nd2,P5A,E18A; […]; SEQ ID NO:5) with a C-terminal GGC sequence ([…] (SEQ ID NO:5)+GGC) dissolved in 50 mM phosphate pH 7.4, 150 mM NaCl, 10 mM EDTA overnight at room temperature as bait. Plates were then washed 4× in 50 mM phosphate pH 7.4, 150 mM NaCl, and blocked for 1 hour at room temperature with 10 mM L-Cys in the same buffer, washed 4× as before, and blocked for 1 hour at room temperature with 50 mM phosphate pH 7.4, 150 mM NaCl, 1% BSA, 0.05% Tween20 (blocking buffer).
Plates were washed 4× as before, serum samples were diluted 1:100 in blocking buffer, and then serum was incubated with the baited plates for 2 hours at room temperature. […]
To test for intact N-termini, wells were then washed 4× as before, and incubated with a 1:10,000 dilution of HRP-conjugated mouse anti-FLAG antibody (M2 clone, 1 mg/mL stock) from Sigma-Aldrich for 1 hour at room temperature. Samples were then washed 4× as before, and assayed using SuperSignal™ ELISA Femto Substrate measured using a Molecular Devices SpectraMax i3 plate reader in luminescence mode. […]

B1: RPtag large-B12 construct (RPtag large with 3xFLAG tag, proline and Cys residue, B12-maleimide conjugated, 8xHis tag removed by TEV protease) (designed binder)
chain: KTIGLVISTLNNPFFVTLKNGAEEKAKELGYKIIVEDSQNDSSKELSNVEDLIQQKVDVLLINPVDSDAVVTAIKEANSKNIPVITIDRSANGGDVVSHIASDNVKGGEMAAEFIAKALKGKGNVVELEGIPGASAARDRGKGFDEAIAKYPDIKIVAKQAADFDRSKGLSVMENILQAQPKIDAVFAQNDEMALGAIKAIEAANRQGIIVVGFDGTEDALKAIKEGKMAATIAQQPALMGSLGVEMADKYLK
modifications: B12-maleimide covalently attached at the added Cys residue (47% labeling efficiency; the preparation is a mixture of free RPtag large and B12-RPtag large conjugate); position of the Cys not stated
notes: Construct expressed with N-terminal 8xHis tag and TEV site, both removed by TEV protease before use; In the assay it stood either in mouse serum after oral gavage or as a standard of known concentration; Formulated with 1 M D-ribose for dosing; also called B12-RPtag large conjugate; B12-RPtag conjugate; not shown: N-terminal leader left after TEV cleavage: 3xFLAG tag, a proline after it and a Cys …
B1: binds.
